{
  "source": "paper PMC3326313",
  "key": {"[1]": {"target": "T1, GB1-His6-SRSF2 RRM wild type (Homo sapiens, UniProt Q01130 9-101)", "T1 sequence": "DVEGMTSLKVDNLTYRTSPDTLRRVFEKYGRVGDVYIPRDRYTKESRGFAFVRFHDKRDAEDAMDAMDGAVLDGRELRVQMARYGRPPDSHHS", "test": "NMR chemical shift titration"}, "[2]": {"target": "T1, GB1-His6-SRSF2 RRM wild type", "test": "ITC"}},
  "data": [
    {"binder": "GAGUA (ssRNA)", "note": "[5-mer GAGUA]", "values": [
      {"measurement": "Kd", "setting": "[1]", "value": "~500", "unit": "µM"}
    ]},
    {"binder": "AGCAGAGUA (ssRNA)", "note": "[9-mer AGCAGAGUA]", "values": [
      {"measurement": "Kd", "setting": "[2]", "value": "0.061 ± 0.001", "unit": "µM"}
    ]}
  ]
}
